Assay results published in patent US20260274980A1 (BIOARCTIC, published 2026).

molecular target: T1, human transferrin receptor 1 (hTfR1) on cell surfaces (human, UniProt P02786 1-760); test: flow cytometry on Ramos cells (hTfR1 on the surface), Fc receptors blocked, overnight at 4 °C, detection with anti-human IgG-Alexa Fluor 488
T1 construct: Endogenous receptor on hCMEC/D3, THP-1, K562 and Ramos cells; also called CD71; endogenous hTfR1
Protocol: Binding to hTfR1 on cells was measured on the immortalized human B lymphocyte cell line Ramos (Sigma, cat: 85030802). This cell line is known for expressing high levels of hTfR1 on the cell surface. Fcγ receptors were blocked using Fc receptor blocker (Innovex biosciences, #NB309-4X-40) for 30 min at 4° C., after which the cells were washed in PBS. The cells were seeded in a 96 well V bottom plate (#249570, Thermo Scientific Nunc), and serially diluted Gen 2A constructs were added and the plate was incubated at 4° C. overnight. The cells were washed with PBS with 1% BSA and then fixed with freshly prepared 4% formaldehyde (Thermo Scientific Pierce, #28906) diluted in PBS for 15 min at room temperature. The cells were washed with PBS containing 1% BSA, and then stained. […] Staining was carried out for 30 min at 4° C. After incubation with the detection reagent, cells were washed with PBS containing 1% BSA. The cells were finally resuspended in 200 μl PBS with 1% BSA and acquired using a BD FACSLyric flow cytometer system (BD Biosciences). Samples were analyzed using flowJo software (BD Biosciences).

T1 sequence (P02786 whole entry): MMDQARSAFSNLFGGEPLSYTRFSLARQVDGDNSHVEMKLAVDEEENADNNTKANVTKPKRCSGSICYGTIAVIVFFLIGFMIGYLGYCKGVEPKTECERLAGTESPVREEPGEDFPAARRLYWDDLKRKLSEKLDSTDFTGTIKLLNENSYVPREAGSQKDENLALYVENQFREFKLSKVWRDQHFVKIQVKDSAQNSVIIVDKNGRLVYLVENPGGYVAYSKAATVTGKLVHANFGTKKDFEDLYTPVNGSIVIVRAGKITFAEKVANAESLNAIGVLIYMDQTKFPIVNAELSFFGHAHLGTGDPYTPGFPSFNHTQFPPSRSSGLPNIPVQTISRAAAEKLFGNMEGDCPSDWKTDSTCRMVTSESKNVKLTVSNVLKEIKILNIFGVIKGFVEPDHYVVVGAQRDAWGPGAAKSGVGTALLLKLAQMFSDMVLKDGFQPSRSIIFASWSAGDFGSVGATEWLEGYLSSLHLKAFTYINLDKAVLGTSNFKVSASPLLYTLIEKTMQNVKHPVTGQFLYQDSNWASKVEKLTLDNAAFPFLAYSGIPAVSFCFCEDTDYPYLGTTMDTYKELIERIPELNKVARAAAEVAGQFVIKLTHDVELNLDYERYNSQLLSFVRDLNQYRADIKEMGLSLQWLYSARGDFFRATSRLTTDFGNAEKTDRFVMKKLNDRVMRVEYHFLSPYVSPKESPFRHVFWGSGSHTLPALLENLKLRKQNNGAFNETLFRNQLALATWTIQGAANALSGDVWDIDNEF

| Binder | binding result |
| --- | --- |
| 2A-3 #11 (bispecific antibody, human IgG1, kappa, also called Gen 2A construct #11; VL first) heavy: not shown DIVMTQAPLSLPVSLGDQASISCRSSQSIVHSNGNTYLEWYLQKPGQSPKLLIYKVSNRFSGVPDRFSGSGSGTDFTLKISRVEAEDLGIYYCFQGSHVPPTFGGGTKLEIKRTVAAPSVFIFPPSDEQLKSGTASVVCLLNNFYPREAKVQWKVDNALQSGNSQESVTEQDSKDSTYSLSSTLTLSKADYEKHKVYACEVTHQGLSSPVTKSFNRGECGGGGSDIQMTQSPSSVSASVGDRVTITCKSSQSLLYSTNQKNYLAWYQQKPGKAPKLLIYWASTRESGVPSRFSGSGSGTDFTLTISSLQPEDFATYYCQQYFIYPRTFGQGTKVEIKGGGGSGGGGSGGGGSEVQLVQSGAEVKKPGSSVKVSCKASGYIFTDYNMDWVRQAPGQGLEWIGDINPDADTTSYNEKFKGRATLTVDKSTSTAYMELSSLRSEDTAVYYCARGGYSGSSYYHPMDYWGQGTLVTVSSGGGGSGGGGSGGGGSGGGGSGGGGSDIVMTQAPLSLPVSLGDQASISCRSSQSIVHSNGNTYLEWYLQKPGQSPKLLIYKVSNRFSGVPDRFSGSGSGTDFTLKISRVEAEDLGIYYCFQGSHVPPTFGGGTKLEIKRTVAAPSVFIFPPSDEQLKSGTASVVCLLNNFYPREAKVQWKVDNALQSGNSQESVTEQDSKDSTYSLSSTLTLSKADYEKHKVYACEVTHQGLSSPVTKSFNRGEC | binds |
| 2A-3 #1 (bispecific antibody, human IgG1, kappa, also called Gen 2A construct #1; VH first) heavy: not shown DIVMTQAPLSLPVSLGDQASISCRSSQSIVHSNGNTYLEWYLQKPGQSPKLLIYKVSNRFSGVPDRFSGSGSGTDFTLKISRVEAEDLGIYYCFQGSHVPPTFGGGTKLEIKRTVAAPSVFIFPPSDEQLKSGTASVVCLLNNFYPREAKVQWKVDNALQSGNSQESVTEQDSKDSTYSLSSTLTLSKADYEKHKVYACEVTHQGLSSPVTKSFNRGECGGGGSEVQLVQSGAEVKKPGSSVKVSCKASGYIFTDYNMDWVRQAPGQGLEWIGDINPDADTTSYNEKFKGRATLTVDKSTSTAYMELSSLRSEDTAVYYCARGGYSGSSYYHPMDYWGQGTLVTVSSGGGGSGGGGSGGGGSDIQMTQSPSSVSASVGDRVTITCKSSQSLLYSTNQKNYLAWYQQKPGKAPKLLIYWASTRESGVPSRFSGSGSGTDFTLTISSLQPEDFATYYCQQYFIYPRTFGQGTKVEIKGGGGSGGGGSGGGGSGGGGSDIVMTQAPLSLPVSLGDQASISCRSSQSIVHSNGNTYLEWYLQKPGQSPKLLIYKVSNRFSGVPDRFSGSGSGTDFTLKISRVEAEDLGIYYCFQGSHVPPTFGGGTKLEIKRTVAAPSVFIFPPSDEQLKSGTASVVCLLNNFYPREAKVQWKVDNALQSGNSQESVTEQDSKDSTYSLSSTLTLSKADYEKHKVYACEVTHQGLSSPVTKSFNRGEC | binds |
| 2A-3 #7 (bispecific antibody, human IgG1, kappa, also called Gen 2A construct #7; VH first) heavy: not shown DIVMTQAPLSLPVSLGDQASISCRSSQSIVHSNGNTYLEWYLQKPGQSPKLLIYKVSNRFSGVPDRFSGSGSGTDFTLKISRVEAEDLGIYYCFQGSHVPPTFGGGTKLEIKRTVAAPSVFIFPPSDEQLKSGTASVVCLLNNFYPREAKVQWKVDNALQSGNSQESVTEQDSKDSTYSLSSTLTLSKADYEKHKVYACEVTHQGLSSPVTKSFNRGECGGGGSGGGGSGGGGSGGGGSGGGGSEVQLVQSGAEVKKPGSSVKVSCKASGYIFTDYNMDWVRQAPGQGLEWIGDINPDADTTSYNEKFKGRATLTVDKSTSTAYMELSSLRSEDTAVYYCARGGYSGSSYYHPMDYWGQGTLVTVSSGGGGSGGGGSGGGGSDIQMTQSPSSVSASVGDRVTITCKSSQSLLYSTNQKNYLAWYQQKPGKAPKLLIYWASTRESGVPSRFSGSGSGTDFTLTISSLQPEDFATYYCQQYFIYPRTFGQGTKVEIKGGGGSGGGGSGGGGSGGGGSGGGGSDIVMTQAPLSLPVSLGDQASISCRSSQSIVHSNGNTYLEWYLQKPGQSPKLLIYKVSNRFSGVPDRFSGSGSGTDFTLKISRVEAEDLGIYYCFQGSHVPPTFGGGTKLEIKRTVAAPSVFIFPPSDEQLKSGTASVVCLLNNFYPREAKVQWKVDNALQSGNSQESVTEQDSKDSTYSLSSTLTLSKADYEKHKVYACEVTHQGLSSPVTKSFNRGEC | binds |
| 2A-3 #2 (bispecific antibody, human IgG1, kappa, also called Gen 2A construct #2; VH first) heavy: not shown DIVMTQAPLSLPVSLGDQASISCRSSQSIVHSNGNTYLEWYLQKPGQSPKLLIYKVSNRFSGVPDRFSGSGSGTDFTLKISRVEAEDLGIYYCFQGSHVPPTFGGGTKLEIKRTVAAPSVFIFPPSDEQLKSGTASVVCLLNNFYPREAKVQWKVDNALQSGNSQESVTEQDSKDSTYSLSSTLTLSKADYEKHKVYACEVTHQGLSSPVTKSFNRGECGGGGSGGGGSEVQLVQSGAEVKKPGSSVKVSCKASGYIFTDYNMDWVRQAPGQGLEWIGDINPDADTTSYNEKFKGRATLTVDKSTSTAYMELSSLRSEDTAVYYCARGGYSGSSYYHPMDYWGQGTLVTVSSGGGGSGGGGSGGGGSDIQMTQSPSSVSASVGDRVTITCKSSQSLLYSTNQKNYLAWYQQKPGKAPKLLIYWASTRESGVPSRFSGSGSGTDFTLTISSLQPEDFATYYCQQYFIYPRTFGQGTKVEIKGGGGSGGGGSGGGGSGGGGSDIVMTQAPLSLPVSLGDQASISCRSSQSIVHSNGNTYLEWYLQKPGQSPKLLIYKVSNRFSGVPDRFSGSGSGTDFTLKISRVEAEDLGIYYCFQGSHVPPTFGGGTKLEIKRTVAAPSVFIFPPSDEQLKSGTASVVCLLNNFYPREAKVQWKVDNALQSGNSQESVTEQDSKDSTYSLSSTLTLSKADYEKHKVYACEVTHQGLSSPVTKSFNRGEC | binds |
| 2A-3 #9 (bispecific antibody, human IgG1, kappa, also called Gen 2A construct #9; VL first) heavy: not shown DIVMTQAPLSLPVSLGDQASISCRSSQSIVHSNGNTYLEWYLQKPGQSPKLLIYKVSNRFSGVPDRFSGSGSGTDFTLKISRVEAEDLGIYYCFQGSHVPPTFGGGTKLEIKRTVAAPSVFIFPPSDEQLKSGTASVVCLLNNFYPREAKVQWKVDNALQSGNSQESVTEQDSKDSTYSLSSTLTLSKADYEKHKVYACEVTHQGLSSPVTKSFNRGECGGGGSGGGGSDIQMTQSPSSVSASVGDRVTITCKSSQSLLYSTNQKNYLAWYQQKPGKAPKLLIYWASTRESGVPSRFSGSGSGTDFTLTISSLQPEDFATYYCQQYFIYPRTFGQGTKVEIKGGGGSGGGGSGGGGSEVQLVQSGAEVKKPGSSVKVSCKASGYIFTDYNMDWVRQAPGQGLEWIGDINPDADTTSYNEKFKGRATLTVDKSTSTAYMELSSLRSEDTAVYYCARGGYSGSSYYHPMDYWGQGTLVTVSSGGGGSGGGGSGGGGSGGGGSDIVMTQAPLSLPVSLGDQASISCRSSQSIVHSNGNTYLEWYLQKPGQSPKLLIYKVSNRFSGVPDRFSGSGSGTDFTLKISRVEAEDLGIYYCFQGSHVPPTFGGGTKLEIKRTVAAPSVFIFPPSDEQLKSGTASVVCLLNNFYPREAKVQWKVDNALQSGNSQESVTEQDSKDSTYSLSSTLTLSKADYEKHKVYACEVTHQGLSSPVTKSFNRGEC | binds |
| 2A-3 #10 (bispecific antibody, human IgG1, kappa, also called Gen 2A construct #10; VL first) heavy: not shown DIVMTQAPLSLPVSLGDQASISCRSSQSIVHSNGNTYLEWYLQKPGQSPKLLIYKVSNRFSGVPDRFSGSGSGTDFTLKISRVEAEDLGIYYCFQGSHVPPTFGGGTKLEIKRTVAAPSVFIFPPSDEQLKSGTASVVCLLNNFYPREAKVQWKVDNALQSGNSQESVTEQDSKDSTYSLSSTLTLSKADYEKHKVYACEVTHQGLSSPVTKSFNRGECGGGGSGGGGSGGGGSDIQMTQSPSSVSASVGDRVTITCKSSQSLLYSTNQKNYLAWYQQKPGKAPKLLIYWASTRESGVPSRFSGSGSGTDFTLTISSLQPEDFATYYCQQYFIYPRTFGQGTKVEIKGGGGSGGGGSGGGGSEVQLVQSGAEVKKPGSSVKVSCKASGYIFTDYNMDWVRQAPGQGLEWIGDINPDADTTSYNEKFKGRATLTVDKSTSTAYMELSSLRSEDTAVYYCARGGYSGSSYYHPMDYWGQGTLVTVSSGGGGSGGGGSGGGGSGGGGSDIVMTQAPLSLPVSLGDQASISCRSSQSIVHSNGNTYLEWYLQKPGQSPKLLIYKVSNRFSGVPDRFSGSGSGTDFTLKISRVEAEDLGIYYCFQGSHVPPTFGGGTKLEIKRTVAAPSVFIFPPSDEQLKSGTASVVCLLNNFYPREAKVQWKVDNALQSGNSQESVTEQDSKDSTYSLSSTLTLSKADYEKHKVYACEVTHQGLSSPVTKSFNRGEC | binds |
| 2A-3 #4 (bispecific antibody, human IgG1, kappa, also called Gen 2A construct #4; VH first) heavy: not shown DIVMTQAPLSLPVSLGDQASISCRSSQSIVHSNGNTYLEWYLQKPGQSPKLLIYKVSNRFSGVPDRFSGSGSGTDFTLKISRVEAEDLGIYYCFQGSHVPPTFGGGTKLEIKRTVAAPSVFIFPPSDEQLKSGTASVVCLLNNFYPREAKVQWKVDNALQSGNSQESVTEQDSKDSTYSLSSTLTLSKADYEKHKVYACEVTHQGLSSPVTKSFNRGECGGGGSEVQLVQSGAEVKKPGSSVKVSCKASGYIFTDYNMDWVRQAPGQGLEWIGDINPDADTTSYNEKFKGRATLTVDKSTSTAYMELSSLRSEDTAVYYCARGGYSGSSYYHPMDYWGQGTLVTVSSGGGGSGGGGSGGGGSDIQMTQSPSSVSASVGDRVTITCKSSQSLLYSTNQKNYLAWYQQKPGKAPKLLIYWASTRESGVPSRFSGSGSGTDFTLTISSLQPEDFATYYCQQYFIYPRTFGQGTKVEIKGGGGSGGGGSGGGGSGGGGSGGGGSDIVMTQAPLSLPVSLGDQASISCRSSQSIVHSNGNTYLEWYLQKPGQSPKLLIYKVSNRFSGVPDRFSGSGSGTDFTLKISRVEAEDLGIYYCFQGSHVPPTFGGGTKLEIKRTVAAPSVFIFPPSDEQLKSGTASVVCLLNNFYPREAKVQWKVDNALQSGNSQESVTEQDSKDSTYSLSSTLTLSKADYEKHKVYACEVTHQGLSSPVTKSFNRGEC | binds |
